Reference: the domain aggregation screens of Martell et al. (2025)

experiment: soluble fraction after stress (log2 fold change); higher = more stays soluble; pooled small domains, quantitative proteomics; settings: stress: 50 degC
Summary of the method: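 After stress at 50°C, the amount of each protein still soluble was measured. This was done on pooled custom libraries of small protein domains, using high-throughput quantitative proteomics. The figure given is a base-two log fold change and stands for aggregation propensity, with higher values meaning more protein stays in solution.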

| Sequence | soluble fraction (log2) |
| --- | --- |
| HMGLTYEQILTDVQRFVTQNHADTLSNEGNPEEARKLLKDYILQYVQNRSYHVDGQTTEELVDSLYED | -0.195 |
| HMSISDEDFAKLLDFVKEKWDAGELDNAEDIKAAISEGEKEFGVSLDESTRTTLASALQQLN | -0.134 |
| HMVVSDSAEIDKIVQDVIAANPKAIEDFKSGKTNVTGWLMGQVMKLSHGKANPKQATEILNKYLSK | 0.354 |
| HMSRTLLVYVTGAVRQPGVYELPEGSRFFDAVKAAGDVLPYAVMEDINMAEPLSDGMKIHIPLDPEQ | -0.125 |
| HMKQTMIVVMEKDAPQSQIDDMVKRIEGLGLKAHTIVGTQRTVVAAIGEKREDTRESLAGSPGVAEVVPIL | 0.181 |
| HMYNPAYDAEIKVILELARHGYWEEARERADELLKAAPDDTGVKRIQTWVRQQEQRMREQAIEDSIRA | -0.0287 |
| HMGKTEMPFSTFLTEVDKGNIVSVDIRGSEISGNFRDGKGFKTYSPNYPNLVEKLSAKGVAITAGPR | 0.187 |
| HMLELTGEEEFVIRTLTRQGDLHINALVVETDIPINRMISLLFELEMKGVVKALVGGVYHLLG | -2.04 |
| HMENIIKISASYEGLRVDQFLSNYLKISRSKVQKYISEEKIFLNNVPTKTNRKVKLDDIISYNLNF | -3.01 |
| HMNLDPHVVGHRLRDLRTRRDLTLADVAAETDISVSTLSRLESGSRRATLELLVPLARTYRVTLDELVDA | -0.66 |
| HMKTFSTRLIALREAIGVNQSELARRVGVTPQAVQKWESGANGPRGKRLEKLASELRSTVGYLVSGEGDG | -0.446 |
| HMDQAEDVLSIPVDALMRGNQVYIKDDTVTEQQGPIPAGFKAVEVETGLISDSYVEIKSGLSEGDTVYVAE | 0.141 |
| HMSLTYTGKFILNHNNIDQSSFNINIYLVNKQTIIQITKPFYGNVLNIKFNEENDLIISPKQFS | -0.146 |
| HMLELTVSDKMARLMAWRNRRRVNLSDQELHRIAAAPKQSPESILKMLPGFLQDSVPEIWAELTGGRP | -0.192 |
| HMPDLSAEERNIVEALQKSNDLQVNLIAVKTGMDMGTLSATLFGLEMKGLVKLMAGGTYHLI | -0.141 |
| HMKRTKLEEATEWLRDRLSDGVKYNGEELLREGESADMARRTLRRAAQELGVIIERERGARGRWFWSLP | -0.515 |
| HMRNSSLQTDLELRAYVIDGLNHFWTPEEIAGRWSLAHPDRPVSFATIYRHIKRKLLPGIEPKTHLRRRGK | -2.55 |
| HMRSQLALVVRTGESQRLDNFLVNNLAWKSRNRLQGLIREGLVTVNGEKTKASRRVHLDDLVEIHL | -1.25 |
| HMSEQLHALIDRLDDIPDDELKKNWPGTLRDLVDVISAELHRQGIEPAQAGMLARKVAAAQAGYMG | -0.344 |
| HMATYETEVISGVNLRSAPNTSASVYRLLSKGEDIHVIQKVNDYWLKVQTKDGKIGYISASSKYTNYIA | -0.29 |
| HMAQASEPMLALIRLKWWEEQINSPVKGDSLPLLSQLNSHISAGYLSRSQVTSLIQRWQDYA | -0.787 |
| HMGGLAEGTKITLQNTVNVRASMGEDAEKIGTAYAGEKVTVIMSYAEGWTKVTWNDKTGYIKTSLL | -0.634 |
| HMTNALDMMKTMDSDAYTKYQKISKESSNEDRQLNELKYITNWYAGAVKKNPSMVDDYEKQKEADS | 0.159 |
| HMEVSKETFPAYVAVDSLPVYKSASTSSSKVTTIDFGREVTVVETRGGWAKIQYGSYKGFAEIEGMSKN | -0.368 |
| HMQITTVSPKNYAEAELIGQRFREGNPVVMDLSKLDSDLGQRLVDFASGLVFALNGTVERIAKKVFLLSP | -0.943 |

| Sequence | soluble fraction (log2) |
| --- | --- |
| HMNKYNNIEDLKEEDFENISEKYQVPVSFVKSKLDDLINWHEKNPQKNHYKNYLSALRDWVKRDSLKIKL | 0.0328 |
| HMASLASVAYETLRQALDNFQYVPGDRFSESEVGQQLGMSRTPVREALVRLQREGYISVLPKMGWVVNQ | -1.64 |
| HMSSAVKRALAELPENWRMIVYYRVVEGLSYAEIAKVLDIPDGSVMSGLHRGKKMLRGLLLEYAQQEGYD | -1.72 |
| HMNQEFRMPNAIKGVELSEENKQQLTQGEKVFLEGMTSAKGSLFDAYVYIDQEKKTLAFDFPEK | 0.184 |
| HMLDKIRTYIDNSFTGVNETKKVKELKDELFENLKEKYNDQIQDGKTEQEAYNSVISGIGDLSELIESVK | 0.553 |
| HMTTLDTVARQLRDRIREQLDPTGEMSDESLLRTIEEAVYRYSSSGHVLTANEKETVIRRIFHSFR | 0.0252 |
| HMEPEYIGELEKRIKKLKTHTYSSIDRLMKSISKKYKITTQVLHDDFKNKHNEIPDEWVKQF | -0.0578 |
| HMQTKNYVYFNNTENWSTVNVYVWSSKDSTYMSWPGKAMESIGNNTYRFELPNGAEYAIFNNGSAQTVD | -0.137 |
| HMSPDLNEVEEKVFRALNGVESMHVNKLGIELNLPVSELFFTLLELEMKNVVKALPGGMYKL | -1.95 |
| HMVYVPTKAEVSQQFQDASKARFDERYAIVELADGRRTMAPLAFLTKADHAWLKQLASTSPLPKGK | 0.0196 |
| HMNVNALIGQEGIVIKEINSGSNKIGQVKISGDTWSAVTTNDFTNAIPVGSNVKILKIDGVNLIVEPVY | -0.0724 |
| HMSDPHEELMSRIARDLSIPLTRVVAEMNTIISKEFGGHIRPEGAVVILAKRSGVEFSDLLPALRENILK | -1.05 |
| HMSEQVTMIDVEGKTETEAKKALEDLGLKVEITYESADAAAGTVIGQDVKAGSTVSEGSRVTLTVSGQ | 0.0626 |
| HMSFPFLMPNLEGLQLDQVRVILEENGLEIGQENYQPDSKFGPGTIINHQPSVDTVVQTGQKVNLQISGTD | 0.112 |
| HMTEALEFTVEDLRMAGLVNSSFSRRRRELFSEKLGIGYGNGKSLLKKLNGYGITREEFNGAIQSLSD | -0.747 |
| HMLPGVPVVAGKTQSAATRILKAAGYAVSVVREEAFDGVTGTVLRTSPEAGSPLAPGSRVTLVVLQVV | -0.27 |
| HMSAPGYRAVYPGMLESERQTAYELLSSSGFDVKINTSSGELEVTTDRYHEARMVMASQNIPK | 0.0432 |
| HMVVLPGEVLRINVIQEGKEHGQGVGYMDDGTMVVIENGREFIGEYMEVNVTKVLQTAAGRMIFGRVD | -0.526 |
| HMSKKTQKDEVVDLFLKTGNEPLHYKEISKKTGIIVHNVRRITGQNVVGKTDNPVFKRVSPGVYKLID | -0.546 |
| HMVAAITDLPVKSVNGRQMYYYVVRKGETVYSLTHTLGITHDRLVKANRSVEDGLRAGQILYFPVSEFG | -1.42 |
| HMVDITPDLIRTLLERFGEYGVTKEHIEARIQRHIESILPAQVVQLRKTYNSLKDGMSQPSDWFDI | -1.26 |
| HMEEEDELALFLREERKNYDLTLTDVHEKTGIPQKVLKEFQWGDAQLTDRQRYTLTQYVEEAREYFQENA | 0.0369 |
| HMSIYYQIYESLKKDLSNNLYKPGEKLPSENVLSKRFGVNRHTIRRSLQLLKNEGILFSKRGSGIIVHD | -2.32 |
| HMDDPISSMVNRIRLAFGLSVTDLAAVLGVERPTIYSWLKDGSTPAPARLTRVRQVLSLADTW | -0.194 |
| HMKWGDTPTVEVPNLIGMKKKDLQTQLVDLKLDISGDGEKVIKQSPEAGAKVKEGSKIRIYFG | -0.0661 |

| Sequence | soluble fraction (log2) |
| --- | --- |
| HMGRRSKAMLSSALDAVPGLGEMRRKALISQFGSLKKLRGATPEEIAAVPGIGPKLAAAVHEAVSG | 0.0505 |
| HMDMSVDQFNQGIRGSELYQQFIHGRGLQQPDGKTREWTDADRNAWRRTLEASGVRIPDGMKIDNAGNLNE | 0.275 |
| HMSKETTYEVLSLKGDEWQTDTIYSDRDEAIEAARNLHGDPHIDGAKVISEVYDDKTGGSKETTIFNT | 0.226 |
| HMIKVAANESNRSDVLEIVRLFRVRVVDVNPESLTIEATGAEGKIDALLGLLEHYGVIELVRSGAVAVT | -0.435 |
| HMGTTAWISTKTANGSVNIRTGPGTGYGVIGWALNGDKLEVLSRGTSWHYVKLVKNGKIGYVSASYVSFTQ | -0.193 |
| HMSDRLRPGDMVVVVGKKKRYPVFSAFDIDFVEAGDVGKVLTVKREEVVVGFPKKGEGTFTPSELNIAH | -0.597 |
| HMKNDKLLIFMELKGISRTQLSKSTGIPASTLGRIINGDVQKIKAVYMEAIANALDTSIHTIFDV | -1.27 |
| HMNDLDSLWDIWENLNERGIGDKSEEGQELRDAIREFIDTNELNVRVTRNKTNEDLLTDIEDALEVAKNS | -0.33 |
| HMNTGTTISYSDFRDRVASGTVKEVQISDDRITGVLKNDETFNTVPVGNDSGLTKLLDDNGVTYSGTP | 0.174 |
| HMGSLVKLQSAAELHQAGRSAEAVPILLEVLATNPRLVDGWEILANALEKLGRLDEALAALKKTVALSPPG | -0.694 |
| HMLLSEPSVLKFNDDNSYEIVSGFLTEYKDKIVKIERRYKKATVKITVAGEEKEIKVSFVEDTE | -0.161 |
| HMRTTYKTRLETLLAGPMSAGDRRFASSLLDFYNRKNRLTPGRARFVAQLEDRYSAEALAARQG | -0.961 |
| HMEHIVNELDRKVIDYLQSHYDAKLNDIAQGIGVSKATATKSIRKLVQTGIVHVVGSSGTGTSYNLTE | -0.152 |
| HMQPDPAFVAWVDANPWYKENRTLRALVHDYAEEVKRQEPALIGTAFLDRVKQLVQSEHPELFD | -0.0926 |
| HMTDLNDTQIKILELLSADASLSAAKMAGQLGIAGRNVEANIKKLKEKGILIRHGSPKSGYWEIVN | -0.0982 |
| HMNPNEVQIPDLVNKTEDEAEQILKDLKLKLVVKSEEYNENIEKGKIISQDPPYQENYTIKEHSEISIVIS | 0.42 |
| HMIENITIELNKKALALDFELNKDLPEGVLETIPTLVSLMVRFDPLTVSYHFLRDYIDALLESNLNVDL | -0.0273 |
| HMRGLGDLEPVDSLGKIRIDDGHMVLAFGRHKGRHLSEVQAEDPRYIHWLLSPKGIEDVEAREKVKVYLEG | -0.0024 |
| HMRSLATFEEEKIALRFWNYLQSEGIKSTLEEEGPRDWVIWVIDEEKIPSATQSLEKFNLNPDDPAFSN | -0.438 |
| HMKIIDDIQEFAGVTKTQNTFFHIFNHLHQNGKQLILTSDRAPVMLQGMEERLLTRFKWGLVAELE | 0.257 |
| HMGGPAGPDFTYTGDDLTRIDYDDGSYKVFTYDAGKLSQIDFTSGGTTTRKTFVYSGDTLIRVDQTI | -0.44 |
| HMGRKEIIVPNLLGKYAIEAGTILKNAGLLEGQAREENSDTYPAGQIMDQFPKANTPANENDKVDYVVSI | ≥ 0.62 |
| HMGAGEQMLPKVMFAEGDRVVHKVFGEGTVVTVDRPAQTYDIQFDKLRGTRRIMFRAELEGI | -0.554 |
| HMVINQRKLNLLSIYSSGSEKRAIILFPTGQTKFVKVGDTLDGGRVAAIGTSEIRYLKGGNNLVLRIPG | -2.63 |
| HMISRKIKELRLSHDLTQKDLADYLNLTPKMVSFYELGQRVPPSDIILKLAEKFHVSTDYLLGNEDRP | -0.0279 |
